Earlier results on one substance are cited in paper PMC9871372.

This series addresses NisA precursor peptide (Lactococcus lactis) (UniProt P13068).
Chain of UniProt P13068 (P13068 24-57): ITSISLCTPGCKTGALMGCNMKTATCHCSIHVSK

Take NisB (from UniProt P20103): the Kd was 1.05 µM.
